Experimental data taken from US20220211812A1 (Bristol-Myers Squibb, published 2022).

T1: human RXFP1 receptor (human, UniProt Q9HBX9 1-757)
T1 sequence (looked up): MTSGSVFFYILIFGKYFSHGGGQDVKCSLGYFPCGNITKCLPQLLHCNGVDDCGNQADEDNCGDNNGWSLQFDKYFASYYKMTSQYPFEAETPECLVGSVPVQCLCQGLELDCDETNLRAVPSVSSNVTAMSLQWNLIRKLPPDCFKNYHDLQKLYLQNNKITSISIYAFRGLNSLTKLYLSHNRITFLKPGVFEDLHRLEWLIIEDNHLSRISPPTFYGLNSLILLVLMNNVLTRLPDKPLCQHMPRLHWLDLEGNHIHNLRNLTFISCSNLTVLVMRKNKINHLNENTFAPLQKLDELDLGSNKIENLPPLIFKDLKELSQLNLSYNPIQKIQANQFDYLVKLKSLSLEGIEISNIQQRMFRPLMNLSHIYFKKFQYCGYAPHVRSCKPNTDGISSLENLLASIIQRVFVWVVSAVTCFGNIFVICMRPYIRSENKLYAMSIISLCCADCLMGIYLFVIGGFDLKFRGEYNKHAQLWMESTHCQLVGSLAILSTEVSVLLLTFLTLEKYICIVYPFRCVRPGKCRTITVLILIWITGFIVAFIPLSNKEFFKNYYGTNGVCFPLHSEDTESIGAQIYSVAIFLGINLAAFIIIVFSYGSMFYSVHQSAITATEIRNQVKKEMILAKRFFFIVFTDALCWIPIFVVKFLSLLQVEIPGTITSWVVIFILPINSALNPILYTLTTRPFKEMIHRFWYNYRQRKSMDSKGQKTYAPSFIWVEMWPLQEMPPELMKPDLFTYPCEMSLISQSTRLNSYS

B1: AQ1-EEEEPEEEEPEEEEPEEGGG-C14-CH3 (ligand)
chain 1: XLYSALANKCCHVGCTKRSLARFC
chain 2: ASWMEEVIKLCGRELVRAQIAICGMSTWS
peptide: EEEEPEEEEPEEEEPEEGGG
modifications: linked to fatty acid -C14-CH3; oxime-linked to pAcF of the A chain; pAcF (para-acetyl-L-phenylalanine) at position 1, oxime-linked to PK enhancer EEEEPEEEEPEEEEPEEGGG-C14-CH3
B2: AQ1-EEEEGEEEEGEEEEGEEEE-Gluγ-C14-CH3 (ligand)
chain 1: XLYSALANKCCHVGCTKRSLARFC
chain 2: ASWMEEVIKLCGRELVRAQIAICGMSTWS
peptide: EEEEGEEEEGEEEEGEEEEE
modifications: not fully specified; Glu^γ bonded by amide to fatty acid -C14-CH3; oxime-linked to pAcF of the A chain; pAcF (para-acetyl-L-phenylalanine) at position 1, oxime-linked to PK enhancer EEEEGEEEEGEEEEGEEEE-Gluγ-C14-CH3
B3: AQ1-KGGEEKKKEKEKEPKGGEEKKKEKEK-Glu^γ-C15-COOH (ligand)
chain 1: XLYSALANKCCHVGCTKRSLARFC
chain 2: ASWMEEVIKLCGRELVRAQIAICGMSTWS
peptide: KGGEEKKKEKEKEPKGGEEKKKEKEKE
modifications: not fully specified; Glu^γ bonded by amide to fatty acid -C15-COOH; oxime-linked to pAcF of the A chain; pAcF (para-acetyl-L-phenylalanine) at position 1, oxime-linked to PK enhancer KGGEEKKKEKEKEPKGGEEKKKEKEK-Glu^γ-C15-COOH
B4: AQ1-EAQKAQAEAQKAQAEAQKAQA-Glu^γ-C15-COOH (ligand)
chain 1: XLYSALANKCCHVGCTKRSLARFC
chain 2: ASWMEEVIKLCGRELVRAQIAICGMSTWS
peptide: EAQKAQAEAQKAQAEAQKAQAE
modifications: not fully specified; Glu^γ bonded by amide to fatty acid -C15-COOH; oxime-linked to pAcF of the A chain; pAcF (para-acetyl-L-phenylalanine) at position 1, oxime-linked to PK enhancer EAQKAQAEAQKAQAEAQKAQA-Glu^γ-C15-COOH
B5: AQ1-GGGGS-Glu^γ (SEQ ID NO: 139)-C14-COOH (ligand)
chain 1: XLYSALANKCCHVGCTKRSLARFC
chain 2: ASWMEEVIKLCGRELVRAQIAICGMSTWS
peptide: GGGGSE
modifications: not fully specified; Glu^γ bonded by amide to fatty acid -C14-COOH (-(C=O)-(CH2)13-COOH); oxime-linked to pAcF of the A chain; modified para-acetyl-L-phenylalanine at the N-terminus (position 1), oxime-linked to PK enhancer GGGGS-Glu^γ-C14-COOH (Formula III)
B6: AQ1-KK-Glu^γ-C13-COOH (ligand)
chain 1: XLYSALANKCCHVGCTKRSLARFC
chain 2: ASWMEEVIKLCGRELVRAQIAICGMSTWS
peptide: KKE
modifications: not fully specified; Glu^γ bonded by amide to fatty acid -C13-COOH; oxime-linked to pAcF of the A chain; pAcF (para-acetyl-L-phenylalanine) at position 1, oxime-linked to PK enhancer …
B7: AQ1-20kDa PEG (ligand)
chain 1: XLYSALANKCCHVGCTKRSLARFC
chain 2: ASWMEEVIKLCGRELVRAQIAICGMSTWS
modifications: pAcF (para-acetyl-L-phenylalanine) at position 1, oxime-linked to 20 kDa PEG
B8: AQ1-KK-Glu^γ-C14-COOH (ligand)
chain 1: XLYSALANKCCHVGCTKRSLARFC
chain 2: ASWMEEVIKLCGRELVRAQIAICGMSTWS
peptide: KKE
modifications: not fully specified; Glu^γ bonded by amide to fatty acid -C14-COOH; oxime-linked to pAcF of the A chain; pAcF (para-acetyl-L-phenylalanine) at position 1, oxime-linked to PK enhancer …
B9: AQ1-KK-Glu^γ-C15-COOH (ligand)
chain 1: XLYSALANKCCHVGCTKRSLARFC
chain 2: ASWMEEVIKLCGRELVRAQIAICGMSTWS
peptide: KKE
modifications: not fully specified; Glu^γ bonded by amide to fatty acid -C15-COOH; oxime-linked to pAcF of the A chain; pAcF (para-acetyl-L-phenylalanine) at position 1, oxime-linked to PK enhancer …
B10: AQ1-EEEEEE-Glu^γ-C14-CH3 (ligand)
chain 1: XLYSALANKCCHVGCTKRSLARFC
chain 2: ASWMEEVIKLCGRELVRAQIAICGMSTWS
peptide: EEEEEEE
modifications: not fully specified; Glu^γ bonded by amide to fatty acid -C14-CH3; oxime-linked to pAcF of the A chain; pAcF (para-acetyl-L-phenylalanine) at position 1, oxime-linked to PK enhancer EEEEEE-Glu^γ-C14-CH3
B11: AQ1-KK-Glu^γ-C14-CH3 (ligand)
chain 1: XLYSALANKCCHVGCTKRSLARFC
chain 2: ASWMEEVIKLCGRELVRAQIAICGMSTWS
peptide: KKE
modifications: not fully specified; Glu^γ bonded by amide to fatty acid -C14-CH3; oxime-linked to pAcF of the A chain; pAcF (para-acetyl-L-phenylalanine) at position 1, oxime-linked to PK enhancer KK-Glu^γ-C14-CH3
B12: AQ1-KGP-Glu^γ-C14-COOH (ligand)
chain 1: XLYSALANKCCHVGCTKRSLARFC
chain 2: ASWMEEVIKLCGRELVRAQIAICGMSTWS
peptide: KGPE
modifications: not fully specified; Glu^γ bonded by amide to fatty acid -C14-COOH; oxime-linked to pAcF of the A chain; pAcF (para-acetyl-L-phenylalanine) at position 1, oxime-linked to PK enhancer KGP-Glu^γ-C14-COOH
B13: AQ1-KGPKGP-Glu^γ-C14-COOH (ligand)
chain 1: XLYSALANKCCHVGCTKRSLARFC
chain 2: ASWMEEVIKLCGRELVRAQIAICGMSTWS
peptide: KGPKGPE
modifications: not fully specified; Glu^γ bonded by amide to fatty acid -C14-COOH; oxime-linked to pAcF of the A chain; pAcF (para-acetyl-L-phenylalanine) at position 1, oxime-linked to PK enhancer KGPKGP-Glu^γ-C14-COOH
B14: AQ1-SGGGS-Glu^γ-C14-COOH (ligand)
chain 1: XLYSALANKCCHVGCTKRSLARFC
chain 2: ASWMEEVIKLCGRELVRAQIAICGMSTWS
peptide: SGGGSE
modifications: not fully specified; Glu^γ bonded by amide to fatty acid -C14-COOH; oxime-linked to pAcF of the A chain; pAcF (para-acetyl-L-phenylalanine) at position 1, oxime-linked to PK enhancer SGGGS-Glu^γ-C14-COOH
B15: AQ1-KGGGS-Glu^γ-C14-COOH (ligand)
chain 1: XLYSALANKCCHVGCTKRSLARFC
chain 2: ASWMEEVIKLCGRELVRAQIAICGMSTWS
peptide: KGGGSE
modifications: not fully specified; Glu^γ bonded by amide to fatty acid -C14-COOH; oxime-linked to pAcF of the A chain; pAcF (para-acetyl-L-phenylalanine) at position 1, oxime-linked to PK enhancer KGGGS-Glu^γ-C14-COOH
B16: AQ1-KGGGSE-Glu^γ-C14-COOH (ligand)
chain 1: XLYSALANKCCHVGCTKRSLARFC
chain 2: ASWMEEVIKLCGRELVRAQIAICGMSTWS
peptide: KGGGSEE
modifications: not fully specified; Glu^γ bonded by amide to fatty acid -C14-COOH; oxime-linked to pAcF of the A chain; pAcF (para-acetyl-L-phenylalanine) at position 1, oxime-linked to PK enhancer KGGGSE-Glu^γ-C14-COOH
B17: AQ1-GSPGSP-Glu^γ-C14-COOH (ligand)
chain 1: XLYSALANKCCHVGCTKRSLARFC
chain 2: ASWMEEVIKLCGRELVRAQIAICGMSTWS
peptide: GSPGSPE
modifications: not fully specified; Glu^γ bonded by amide to fatty acid -C14-COOH; oxime-linked to pAcF of the A chain; pAcF (para-acetyl-L-phenylalanine) at position 1, oxime-linked to PK enhancer GSPGSP-Glu^γ-C14-COOH
B18: AQ1-Glu-C13-CH3 (ligand)
chain 1: XLYSALANKCCHVGCTKRSLARFC
chain 2: ASWMEEVIKLCGRELVRAQIAICGMSTWS
modifications: not fully specified; pAcF (para-acetyl-L-phenylalanine) at position 1, oxime-linked to PK enhancer Glu-C13-CH3
B19: AQ1-GGGGP-Glu^γ-C14-COOH (ligand)
chain 1: XLYSALANKCCHVGCTKRSLARFC
chain 2: ASWMEEVIKLCGRELVRAQIAICGMSTWS
peptide: GGGGPE
modifications: not fully specified; Glu^γ bonded by amide to fatty acid -C14-COOH; oxime-linked to pAcF of the A chain; pAcF (para-acetyl-L-phenylalanine) at position 1, oxime-linked to PK enhancer GGGGP-Glu^γ-C14-COOH
B20: AQ1-EGGS-Glu^γ-C14-COOH (ligand)
chain 1: XLYSALANKCCHVGCTKRSLARFC
chain 2: ASWMEEVIKLCGRELVRAQIAICGMSTWS
peptide: EGGSE
modifications: not fully specified; Glu^γ bonded by amide to fatty acid -C14-COOH; oxime-linked to pAcF of the A chain; pAcF (para-acetyl-L-phenylalanine) at position 1, oxime-linked to PK enhancer EGGS-Glu^γ-C14-COOH
B21: AQ1-EGGGP-Glu^γ-C14-COOH (ligand)
chain 1: XLYSALANKCCHVGCTKRSLARFC
chain 2: ASWMEEVIKLCGRELVRAQIAICGMSTWS
peptide: EGGGPE
modifications: not fully specified; Glu^γ bonded by amide to fatty acid -C14-COOH; oxime-linked to pAcF of the A chain; pAcF (para-acetyl-L-phenylalanine) at position 1, oxime-linked to PK enhancer EGGGP-Glu^γ-C14-COOH

Molecular target: T1, human RXFP1 receptor
Assay: cell-based or functional assay

Binder | hRXFP1/CHO-K1 cAMP EC50 (nM, avg) [nM]
B1 | 0.16
B2 | 0.67
B3 | 1.81
B4 | 4.96
B5 | 0.28
B6 | 0.1
B7 | 3.22
B8 | 0.34
B9 | 0.4
B10 | 0.38
B11 | 0.35
B12 | 0.27
B13 | 0.23
B14 | 0.32
B15 | 0.34
B16 | 0.37
B17 | 0.29
B18 | 0.95
B19 | 0.39
B20 | 0.33
B21 | 0.44
